According to patent US20200190507A1, “Encoded Solid Phase Compound Library with Polynucleotide Based Barcoding” (The Scripps Research Institute, priority 2016, published 2020):
Entries after “also recorded” stand apart in the source; their conditions may differ.

System: ATB serum IgGs
Experiment: Antigen competition binding analysis with beads displaying 2-B
Set-up: species or system human
Conditions: for competition with 2-B for binding ATB serum IgGs: pooled ATB serum, beads displaying 2-B, CFP 250 μg/mL

B1: recombinant Ag85B: Mycobacterium tuberculosis recombinant protein reference standard Ag85B, expressed in E. coli (protein)
chain: FSRPGLPVEYLQVPSPSMGRDIKVQFQSGGNNSPAVYLLDGLRAQDDYNGWDINTPAFEWYYQSGLSIVMPVGGQSSFYSDWYSPACGKAGCQTYKWETFLTSELPQWLSANRAVKPTGSAAIGLSMAGSSAMILAAYHPQQFIYAGSLSALLDPSQGMGPSLIGLAMGDAGGYKAADMWGPSSDPAWERNDPTQQIPKLVANNTRLWVYCGNGTPNELGGANIPAEFLENFVRSSNLKFQDAYNAAGGHNAVFNFPPNGTHSWEYWGAQLNAMKGDLQSSLGAG
- competition with 2-B for binding ATB serum IgGs: no binding competition; also recorded: unreactive; also recorded: did not compete

B2: Ag85B: Mycobacterium tuberculosis purified native protein Ag85B (Gene Rv1886c), Strain H37Rv (protein)
chain: FSRPGLPVEYLQVPSPSMGRDIKVQFQSGGNNSPAVYLLDGLRAQDDYNGWDINTPAFEWYYQSGLSIVMPVGGQSSFYSDWYSPACGKAGCQTYKWETFLTSELPQWLSANRAVKPTGSAAIGLSMAGSSAMILAAYHPQQFIYAGSLSALLDPSQGMGPSLIGLAMGDAGGYKAADMWGPSSDPAWERNDPTQQIPKLVANNTRLWVYCGNGTPNELGGANIPAEFLENFVRSSNLKFQDAYNAAGGHNAVFNFPPNGTHSWEYWGAQLNAMKGDLQSSLGAG
- ATB IgG binding of Ag85B relative to Ag85A (competition titration with 2-B beads): ~10 fold
- competition with 2-B for binding ATB serum IgGs: compete strongly
